1 substance from publication PMC8252068, “Biochemical Investigation of the Interaction of pICln, RioK1 and COPR5 with the PRMT5–MEP50 Complex” (Chembiochem, 2021) can be followed below.

In assay [1] the target is T1, PRMT5–MEP50 (Homo sapiens, UniProt O14744+Q9BQA1).
T1 construct: Full‐length PRMT5–MEP50; 6His-MBP with 3C site (N, cleaved yes); made in house; host or cells: HighFive insect cells (flashBAC baculovirus system)
The experiment in a line: Flow induced dispersion analysis (FIDA), PRMT5–MEP50. The format is binding. The conditions noted are these: technical triplicate. On the procedure: (§1) Nucleodur C18 Gravity column, with a flow rate of 0.56 ml/min, and the samples obtained from the stability assay were tested using 125 mm x 3 mm, 5 μm Macherey-Nagel Nucleodur C4 Gravity at a flow rate of 1 ml/min, in both cases using elution system: 5% → 65% MeCN (0.1% TFA) in H2O (0.1% TFA) over 14 min. HRMS analyses were performed on a LTQ Orbitrap mass spectrometer (Thermo Fisher Scientific, USA) using electrospray ionization. Concentrations of PRMT5 -MEP50, TIM -MEP50 and TIM were measured with the Bradford assay, using Protein Assay Dye Reagent from Bio -Rad (Cat. #500-0006; Bio- […]

Assay [2] addresses T2, TIM–MEP50 (Homo sapiens, UniProt O14744+Q9BQA1).
T2 construct: truncated PRMT5 protein (residues 1–292), corresponding to the TIM barrel domain, was either expressed alone or co‐expressed as a complex with MEP50; His-TRX with 3C cleavage site (N, cleaved yes); made in house; host or cells: HighFive insect cells (flashBAC baculovirus system)
Nature of the assay: Flow induced dispersion analysis (FIDA), TIM–MEP50. The note with it: technical triplicate. Type of assay: binding. On the procedure: as §1

In assay [3] the target is T3, TIM–MEP50 complex (PRMT5 residues 1–292 co-expressed with MEP50) (Homo sapiens, UniProt O14744+Q9BQA1).
T3 construct: truncated PRMT5 protein (residues 1–292), corresponding to the TIM barrel domain, was either expressed alone or co‐expressed as a complex with MEP50; His-TRX with 3C cleavage site (N, cleaved yes); made in house; host or cells: HighFive insect cells (flashBAC baculovirus system)
T3 sequence (O14744 1-292): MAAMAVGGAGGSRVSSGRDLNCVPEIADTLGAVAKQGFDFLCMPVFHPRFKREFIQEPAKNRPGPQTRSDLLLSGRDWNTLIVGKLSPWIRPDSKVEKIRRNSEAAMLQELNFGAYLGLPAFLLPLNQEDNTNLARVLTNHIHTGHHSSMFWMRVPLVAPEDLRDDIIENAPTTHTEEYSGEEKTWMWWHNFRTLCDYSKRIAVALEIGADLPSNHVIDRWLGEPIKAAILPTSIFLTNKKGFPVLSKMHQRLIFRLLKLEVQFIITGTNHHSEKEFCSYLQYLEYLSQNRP
T3 sequence (Q9BQA1 whole entry partner, the tested form may be a part): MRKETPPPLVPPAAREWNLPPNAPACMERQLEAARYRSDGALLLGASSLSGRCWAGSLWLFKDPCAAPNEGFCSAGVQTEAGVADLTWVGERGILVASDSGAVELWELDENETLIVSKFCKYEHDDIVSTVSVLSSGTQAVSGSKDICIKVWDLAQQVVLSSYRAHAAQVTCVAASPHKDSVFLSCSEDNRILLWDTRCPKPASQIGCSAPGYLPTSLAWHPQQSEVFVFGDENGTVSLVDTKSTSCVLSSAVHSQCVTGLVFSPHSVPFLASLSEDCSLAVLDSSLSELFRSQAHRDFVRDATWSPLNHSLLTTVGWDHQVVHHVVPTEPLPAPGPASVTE
Nature of the assay: Fluorescence polarisation direct binding assay, TIM–MEP50. The conditions noted are these: FP; Alexa488-labelled protein 1 nM, unlabelled complex titrated; pH 8.0; 1-2h, 20-21 °C; n=3; read-out: K D of Alexa488-labelled adaptor protein for TIM–MEP50 (FP). The protocol:
(§2) All proteins were expressed at the Protein Chemistry Facility (PCF) based in the MPI Dortmund.
For expression of the proteins, all constructs were subcloned into pOPIN vectors.
Full-length human pICln, N-terminally tagged with 6His-TRX followed by the 3C cleavage site, and TIM barrel domain (1-292 aa) of human PRMT5, N-terminally tagged with 6His-SUMO, were expressed in BL21 CodonPlus (DE3) RIPL strain of Escherichia coli. Bacteria with the respective plasmids were cultured in Terrific Broth medium. Expression of TIM barrel was auto-induced, with incubation of the starter-culture (starting OD of ~0.05) at 35 °C for 2.5h, followed by an overnight incubation (20 -24h) at 25 °C. Expression of pICln was induced at OD ~0.6-0.8 using 0.3 mM IPTG and E. coli was incubated at 20 °C for 20h. Bacteria were harvested by centrifugation and lysed.
(§3) Expression of full-length human RioK1 tagged with 6NHis-3C and co-expression of full-length human PRMT5 (N-terminal 6His-MBP with 3C) with MEP50 (N-terminal 6His-TRX with 3C), and of TIM barrel (1-292 aa) with MEP50 (both N-terminally tagged with His-TRX with 3C cleavage site) was done using the Flash Bac Expression System (Oxford Expression Technologies, UK) with HighFive insect cells in Gibco Sf-900 III SFM medium. The cells were harvested by centrifugation and lysed.
(§4) All proteins were purified at the PCF (MPI Dortmund).
(§5) Protein purification was performed on HisTrap FF crude 5 ml Ni-based column, followed by the on-column treatment with 6His-tagged HRV-3C PreScission protease, or in case of the SUMO-tagged TIM barrel, with 6His-tagged SUMO protease. The cleaved proteins were then further purified using gel filtration chromatography with the HiLoad 26/60 Superdex 75 or 200 prep grade column. PRMT5 -MEP50, TIM-MEP50 and TIM barrel were stored in a buffer containing 50 mM HEPES, 250 mM NaCl, 1 mM TCEP with the pH adjusted to 8.0, whereas, pICln was stored in a buffer of 20 mM phosphate, 100 mM NaCl, 5 mM TCEP and pH of 7.5, whereas RioK1 was stored in a buffer of 50 mM Tris, 200 mM NaCl, 10% glycerol, 1 […]
(§6) Protein Labelling with Alexa 488
(§7) To a protein solution (ca. 1 mg/ml) in 0.2 M bicarbonate buffer with 1 mM TCEP at pH 8.3, was added 10 mM Alexa 488 NHS-ester in DMSO (8 equiv), and the mixture was kept on ice, in darkness, overnight. The protein was washed eight times with buffer (50 mM HEPES, 250 mM NaCl, 1 mM TCEP, 8.0 pH) using an Amicon® Ultra-0.5 mL spin filter. Protein concentration was then determined using the NanoDrop […]
(§8) Fluorescence Polarisation (FP)
(§9) The assay was performed in a buffer of 50 mM HEPES, 250 mM NaCl, 1 mM TCEP, 0.01% (v/v) Tween 20, pH 8.0, in black, 384 well-plates, with a total volume of 10 μl per well. The analysed, FITC labelled peptides, or Alexa488-labelled pICln or RioK1, were tested at a final concentration of 1 nM, and the appropriate unlabelled protein was titrated as two-fold dilution series. The plates were incubated at 20-21 °C for 30 min in case of FITC -labelled peptides or 1-2h in case of the Alexa488-labelled protein, and analysed on a plate reader using 485 nm excitation and 535 nm emission wavelength. The assay was performed in […]
(Fluorescence polarisation rises when a labelled molecule tumbles more slowly, as on binding a larger partner.)

In assay [4] the target is T4, native PRMT5–MEP50 complex (Homo sapiens, UniProt O14744+Q9BQA1).
T4 construct: Full‐length PRMT5–MEP50; 6His-MBP with 3C site (N, cleaved yes); made in house; host or cells: HighFive insect cells (flashBAC baculovirus system)
T4 sequence (O14744 whole entry): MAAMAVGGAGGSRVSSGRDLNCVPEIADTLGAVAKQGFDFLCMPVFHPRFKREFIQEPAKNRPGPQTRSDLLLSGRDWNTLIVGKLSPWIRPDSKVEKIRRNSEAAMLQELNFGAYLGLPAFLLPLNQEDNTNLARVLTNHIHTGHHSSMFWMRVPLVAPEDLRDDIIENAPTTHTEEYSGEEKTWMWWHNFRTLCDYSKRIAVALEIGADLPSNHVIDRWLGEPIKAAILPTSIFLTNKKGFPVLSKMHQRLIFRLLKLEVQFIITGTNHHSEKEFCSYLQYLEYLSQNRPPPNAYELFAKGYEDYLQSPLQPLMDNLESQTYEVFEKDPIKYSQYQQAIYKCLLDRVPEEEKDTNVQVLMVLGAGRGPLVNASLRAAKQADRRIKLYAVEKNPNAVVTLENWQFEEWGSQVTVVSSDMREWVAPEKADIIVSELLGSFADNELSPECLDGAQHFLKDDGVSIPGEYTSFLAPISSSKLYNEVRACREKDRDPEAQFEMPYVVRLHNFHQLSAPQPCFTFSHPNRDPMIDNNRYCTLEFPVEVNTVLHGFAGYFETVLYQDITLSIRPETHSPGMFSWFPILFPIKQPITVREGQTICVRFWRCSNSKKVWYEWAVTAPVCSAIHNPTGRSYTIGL
T4 sequence (Q9BQA1 whole entry partner): as the sequence (Q9BQA1 whole entry partner, the tested form may be a part) above
The experiment in a line: Fluorescence polarisation direct binding assay, full-length PRMT5–MEP50. The conditions noted are these: FP; Alexa488-labelled protein 1 nM, unlabelled complex titrated; pH 8.0; 1-2h, 20-21 °C; n=3; read-out: K D of Alexa488-labelled adaptor protein for PRMT5–MEP50 (FP).
Source text: as §2
For expression of the proteins, all constructs were subcloned into pOPIN vectors. […]
as §3, §4, §5, §6, §7, §8, §9

Read-outs that look alike come from different tables or passages of the source.

T2 sequence (O14744 1-292): as the sequence (O14744 1-292) above
T2 sequence (Q9BQA1 whole entry partner, the tested form may be a part): as the sequence (Q9BQA1 whole entry partner, the tested form may be a part) above
T1 sequence (O14744 whole entry): as the sequence (O14744 whole entry) above
T1 sequence (Q9BQA1 whole entry partner): as the sequence (Q9BQA1 whole entry partner, the tested form may be a part) above

With “pICln-Alexa488: full-length human pICln labelled with the fluorescent dye Alexa488”, the Kd in assay [1] (Supplement Table S4, indicator 10 nM, 25 °C, read-out: Affinity constant, PRMT5-MEP50 (Table S4, FIDA)) was 39.3 nM; in assay [1] (indicator (Alexa488-labelled protein) 10 nM, HEPES buffer pH 8.0, 0.01% Tween 20, 25 °C, read-out: K D for PRMT5–MEP50 (FIDA)) it was 39.3 nM; in assay [2] (Supplement Table S4, indicator 10 nM, 25 °C, read-out: Affinity constant, TIM-MEP50 (Table S4, FIDA)) it was 64.1 nM; in assay [2] (indicator (Alexa488-labelled protein) 10 nM, HEPES buffer pH 8.0, 0.01% Tween 20, 25 °C, read-out: K D for TIM–MEP50 (FIDA)) it was 64.1 nM; in assay [3] it was 4.1 ± 0.6 nM; in assay [4] it was 9.1 ± 1.5 nM.
